Consider three molecules from patent US7053194 (FOX CHASE CANCER CENTER, dated 2006).

The assay concerns the target T1, GST p53 (amino acids 1-393), GST fusion protein of full-length p53 (human, UniProt P04637 1-393).
T1 construct: not shown: glutathione S-transferase (GST) fusion partner
Description: in vitro interaction of truncated mSin3a with GST p53. The procedure:
GST-fusion proteins were prepared from E. coli cells as described (Murphy et al., Genes & Devel. 10:2971–2980, 1996). One microgram of GST or fusion protein was bound to glutathione sepharose beads and incubated with 10 uL of ^35S methionine labeled, in vitro translated proteins generated in a coupled transcription/translation system (TNT, Promega). Binding occurred in 300 uL of binding buffer (20 mM Hepes pH 7.9/150 mM KC1/1 mM EDTA/4 mM MgC12/1 mM DTT/0.02% NP-40/10% glycerol) supplemented with protease inhibitors. Proteins were bound for 30 minutes at 4 degrees, and bound complexes were washed three times in wash buffer with constant vortexing (20 mM Hepes pH 7.9/150 mM KC1/1 mM EDTA/4 mM MgCl2/1 mM DTT/0.1% NP-40/10% glycerol). Bound proteins were eluted in 1× Laemmli sample buffer and separated on 7.5% or 10% SDS-PAGE. […] Bound complexes were washed twice in NP-40 buffer, once in RIPA buffer, and resolved on SDS-PAGE.

T1 sequence (P04637 whole entry, the tested form may be a part): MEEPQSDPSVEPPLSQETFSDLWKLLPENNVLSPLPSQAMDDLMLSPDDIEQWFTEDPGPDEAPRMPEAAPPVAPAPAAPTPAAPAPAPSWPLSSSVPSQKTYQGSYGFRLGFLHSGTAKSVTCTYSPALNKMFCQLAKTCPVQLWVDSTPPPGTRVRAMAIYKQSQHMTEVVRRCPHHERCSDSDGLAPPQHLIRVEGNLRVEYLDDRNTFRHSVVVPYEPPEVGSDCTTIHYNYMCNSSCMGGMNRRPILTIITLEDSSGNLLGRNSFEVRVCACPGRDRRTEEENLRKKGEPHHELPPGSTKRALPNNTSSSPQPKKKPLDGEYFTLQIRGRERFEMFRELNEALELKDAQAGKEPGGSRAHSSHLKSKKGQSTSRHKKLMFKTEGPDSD

B1: truncated mSin3a, amino acids 112-192 (paired amphipathic helix 1) (other, UniProt Q60520 112-192, looked up)
chain: VQGQQQFQRLKVEDALSYLDQVKLQFGSQPQVYNDFLDIMKEFKSQSIDTPGVISRVSQLFKGHPDLIMGFNTFLPPGYKI
notes: range 112-192; Printed PAM is read as PAH1; also called PAM (so in the source); PAH1
In the case of B1, the binding result is “no binding”.

B2: truncated mSin3a, amino acids 297-386 (PAH 2) (other, UniProt Q60520 297-386, looked up)
chain: QNNQPVEFNHAINYVNKIKNRFQGQPDIYKAFLEILHTYQKEQRNAKEAGGNYTPALTEQEVYAQVARLFKNQEDLLSEFGQFLPDANSS
notes: range 297-386
As to B2, the binding result is recorded as “no binding”.

B3: truncated mSin3a, amino acids 297-529 (PAH2-3) (other, UniProt Q60520 297-529, looked up)
chain: QNNQPVEFNHAINYVNKIKNRFQGQPDIYKAFLEILHTYQKEQRNAKEAGGNYTPALTEQEVYAQVARLFKNQEDLLSEFGQFLPDANSSVLLSKTTAEKVDSVRNDHGGTVKKPQLNNKPQRPSQNGCQIRRHSGTGATPPVKKKPKLMSLKESSMADASKHGVGTESLFFDKVRKALRSAEAYENFLRCLVIFNQEVISRAELVQLVSPFLGKFPELFNWFKNFLGYKESV
notes: range 297-529
In the case of B3, the binding result is reported as “binds”.
